For one assay, the target named is HaALP, membrane bound alkaline phosphatase of Helicoverpa armigera (Helicoverpa armigera (endogenous in larval midgut)).
Test: not given
In turn, Cry1Ac W545A (domain or fragment) came in with an LC50, insect bioassay on H. armigera neonates (toxin on artificial diet surface, 5 days) of 34.1 µg/mL.

The next assay has the same target. Kind of assay: SPR.
Substance Cry1Ac N510A (domain or fragment) gave a dissociation constant (Kd) of 58.4 nM, an off-rate constant (koff) of 0.00136 s⁻¹ and an on-rate (kon) of 23200 M⁻¹ s⁻¹.

In the case of Cry1Ac Q509A (domain or fragment), the Kd stood at 29.6 nM, the off-rate constant (koff) amounted to 0.00571 s⁻¹ and the kon was 193000 M⁻¹ s⁻¹.

As for Cry1Ac R511A (domain or fragment), the Kd worked out at 32 nM, the koff worked out at 0.00179 s⁻¹ and the association rate constant (kon) is 55800 M⁻¹ s⁻¹.

Cry1Ac W545A (domain or fragment) showed a Kd of 7150 nM, an off-rate (koff) of 0.00688 s⁻¹ and a kon of 963 M⁻¹ s⁻¹.

Cry1Ac Y513A (domain or fragment) registered a dissociation constant Kd of 223 nM, an off-rate constant (koff) of 0.00147 s⁻¹ and an on-rate (kon) of 6610 M⁻¹ s⁻¹.

Consider “Cry1Ac tetra mutant (Q509A-N510A-R511A.Y513A) (domain or fragment)”, for which the dissociation constant Kd is 2420 nM, the off-rate constant (koff) amounted to 0.000184 s⁻¹ and the association rate constant (kon) was 75 M⁻¹ s⁻¹.

In the case of “Cry1Ac triple mutant (Q509A-N510A-R511A) (domain or fragment)”, the Kd is 262 nM, the koff was 0.00269 s⁻¹ and the kon came out at 10200 M⁻¹ s⁻¹.
